Measured values: paper PMC5699081 (Proceedings of the National Academy of Sciences of the …, 2017)
Residue numbers refer to the chain shown, from its start.

Target: T1, GST-MPSR1 (Misfolded Protein Sensing RING E3 ligase 1) (Arabidopsis thaliana, UniProt Q9LQX2 1-204)
T1 sequence (looked up): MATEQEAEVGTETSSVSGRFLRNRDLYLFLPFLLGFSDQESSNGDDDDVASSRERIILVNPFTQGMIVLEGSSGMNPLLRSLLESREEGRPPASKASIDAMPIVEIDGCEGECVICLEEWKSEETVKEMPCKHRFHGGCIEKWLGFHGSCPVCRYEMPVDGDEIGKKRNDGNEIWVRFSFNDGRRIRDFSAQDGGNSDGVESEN
Experiment: pull-down

B1: His-MPSR1-DN (enzyme, Arabidopsis thaliana, UniProt Q9LQX2 1-204, looked up)
chain: T1 sequence (looked up) with C153S
binding result: binds
